Test results published in patent US20100285583A1, “COMPOUNDS AND METHODS FOR INHIBITING PLATELET AGGREGATION” (priority 2009, published 2010).

Assays:
[1] = Liposome-binding assay, PtdIns(4,5)P2 liposomes; settings: liposomes with PtdIns(4,5)P2
Method: Lipid stocks including sulfatides, PE, PS, and PtdIns(4,5)P2 were dissolved in chloroform:methanol:water (1:2;0.8, 65:35:8, 65:35:4 and 65:35:8, respectively), whereas cholesterol and PC were dissolved in chloroform:methanol (1:1). Sulfatides liposomes were prepared in a weight ratio of 1:1:1:4 of PC:PE:cholesterol:sulfatides. PtdIns(4,5)P2 liposomes were prepared in a percent ratio of 50:20:10:10:10 of PC:PE:PS:cholesterol:PtdIns(4,5)P2. Controls were prepared by adjusting the ratios with PC. Lipid films were generated by lyophilization overnight and hydrated in 20 mM Tris-HCl (pH 6.8), 100 mM NaCl, 2 mM dithiothreitol (DTT) at 1 mg/mL and freeze-thawed 3 times. Liposomes were sonicated and further pelleted and suspended in 4 mg/mL. Ten μg of protein were incubated with 125 μg of total lipids for 20 min at RT. Liposome-bound and free-protein samples were separated by centrifugation and analyzed by SDS-PAGE. Bands were quantified using AlphaImager, and the percentage of total protein each fraction contained was calculated from the total protein.

[2] = system: Human washed platelets; test: Platelet immunofluorescence analysis (subcellular localization); assay type: cell-based; settings: 1.9 μM
Method: Washed platelets (50 μl of […] in Tyrode's albumin buffer) were incubated with 1.9 μM of PTB domain constructs for 5 min at room temperature in the presence of 0.25 g/L fibrinogen. Aggregation was initiated by the addition of 10 μM TRAP. Reactions were incubated at room temperature unless otherwise indicated. Platelets were fixed with 0.4 mL of 3.7% formaldehyde in Phosphate Buffered Saline (PBS) for 30 min. Next, 20% goat serum was added to the fixed platelets, and 60% of the total fixed reaction was centrifuged using a Shandon cytospinner onto a Shandon coated cytoslide to achieve the appropriate platelet density for analysis. Slides were then washed twice with PBS for 10 min. Platelets were permeabilized with 0.5% Triton X-100 in PBS for 10 min and then blocked with 20% goat serum in PBS with 0.1% Triton X-100 for 1 h at room temperature. Platelets were washed 3 times with PBS with 0.1% Triton for 10 minutes and further incubated overnight with the anti-Dab2 antibody 1:100 (anti-p96; BD Transduction) in PBS with 0.1% Triton X-100 and 10% goat serum at 4° C. in a humidity chamber. Platelets were then washed and incubated with the anti-mouse Cy-3 conjugated goat antibody 1:250 and Alexa488 conjugated phalloidin (25 μg/mL) in PBS with 0.1% Triton X-100 and 10% goat serum for 2 h. Platelets were washed again and observed on an Olympus IX71 microscope using the Softworx Applied Precision software.
Mean pixel intensity was determined for 400 platelets from four fields each for 3 min and 10 min of treatments by manually drawing circles around individual platelets using the 2D Polygon tool in the Softworx software. For each time point, a threshold of significant mean pixel intensity was defined for the experiment. The percentage of countable platelets to exceed the threshold was calculated for each field and the average of four fields was computed with standard deviation. The ratio of internalization:binding is the quotient of these averages for a treatment.

[3] = system: Human washed platelets; test: Platelet adhesion assay; assay type: cell-based; settings: 1.9 μM, TRAP
Method: Human washed platelets were incubated with BSA, Dab2 PTB or Dab2 PTB^4M (1.9 μM each) for 5 min at room temperature in the presence of 0.25 g/L fibrinogen. Aggregation was initiated by the addition of 10 μM TRAP, and reactions were incubated 20 min at 37° C. Samples were fixed with 3.7% formaldehyde in PBS, stained with Wright stain, and photographed. Wright stain was eluted with 20% ethanol, and absorbance was quantified at 415 nm.

[4] = system: platelet surface P-selectin; test: Flow cytometry, platelet surface P-selectin; assay type: cell-based, human; settings: for inhibition of sulfatide induced activation (surface P-selectin): ADP 30 μM, sulfatide liposomes 50 μg/mL
Method: Washed platelets (2.5×10^5 platelets/μL) were kept unactivated or either activated with ADP (30 μM) or TRAP (10 μM). Both unactivated and activated platelets were incubated for 10 min at 23° C. with liposomes (50 μg/mL) either without (liposomes control) or with sulfatides, and N-PTB constructs (1 μM). Reactions were fixed with 1% formalin and incubated with PE- labeled CD62p anti-P-selectin (BioLegend) or FITC-labeled PAC-1 anti-integrin receptor (BD Transduction) antibodies. Bound antibodies were quantified using a FacsAria flow cytometer.
Once present, P-selectin is able to interact with sulfatides which triggers an internal phosphorylation pathway thought to be mediated by p38 (FIG. 12A) (Merten 2005). This cascade results in further de-granulation and an increase in surface P-selectin (Merten 2005). To monitor the de-granulation of platelets, two activation markers were evaluated using fluorescent antibodies specific for P-selectin and the αIIbβ3 integrin. Marker surface expression was quantified using fluorescence-activated cell sorting (FACS) analysis, and measuring the median fluorescent signal of 10,000 platelets. The median signal was used as our reference to quantify the data set as median values are less affected by the wide range of platelet signals and is therefore more representative of the population. When platelets were stimulated with ADP (30 μM) they show increases in both surface P-selecting and αIIbβ3 integrin expression. In the presence of sulfatides (50 μg/mL), in the form of enriched liposomes, the levels of P-selectin and αIIbβ3 integrin were further increased to about 20-25 fold their un-stimulated levels (FIG. 12B). […] The levels of P-selectin and αIIbβ3 integrin were measured among several different individuals and the levels varied greatly between them; however; consistently, sulfatides induced a ˜20 fold increase over un-stimulated platelets and a ˜10 fold increase over ADP stimulated platelets.

[5] = system: platelet and leukocyte mixtures; test: Platelet-leukocyte aggregation under flow; assay type: cell-based, human; settings: 10 μM, with sulfatide liposomes
Method: The microfluidic device consisted in a simple straight channel 500 μm wide, 50 μm deep and 3.62 cm long. A silicon master stamp was fabricated on a <100> silicon substrate following a previously described process (Ross et al. Ann. Rev. Med. 1987, 38:71-79). Flow was driven using a micro-syringe pump (Cole-Parmer) with a 1 mL syringe connected to the channel inlet by 30 cm of Cole-Parmer gauge 20 Teflon tubing. After priming the system with the sample, the pump was set to 0.05 mL/h (equivalent to an average velocity of 0.55 mm/sec in the channel), which is in the range of in vivo blood velocity (0.1-1.5 mm/sec (9)) and causes a shear rate of 70 sec−1. This flow rate was maintained for 1 min prior to the experiments. Platelets flowing through the channel were monitored using an inverted light microscope (DMI 6000B, Leica Microsystems) equipped with a digital camera (DFC420, Leica Microsystems).
To quantify the ability of N-PTB to block platelet-leukocyte binding under physiological flow conditions, platelet and leukocyte mixtures were flown through a microfluidics device, as described above, and aggregation was measured using light microscopy. Untreated cell suspensions ([…]) were flown for 10 minutes and the channel was scanned for leukocyte adhesion and inclusion into platelet aggregates and representative pictures were taken (FIG. 18A-B).

IC50 ([4]; titration 1 nM-1 μM, ADP stimulated platelets, logarithmic curve fit, read-out: IC50, inhibition of sulfatide induced P-selectin marker expression): 121 nM
B1: N-PTB: N-terminal phosphotyrosine binding domain (residues 1-241) of human Disabled-2 (Dab2), expressed as GST-fusion in E. coli (protein)
chain: MSNEVETSATNGQPDQQAAPKAPSKKEKKKGPEKTDEYLLARFKGDGVKYKAKLIGIDDVPDARGDKMSQDSMMKLKGMAARGRSQGQHKQRIWVNISLSGIKIIDEKTGVIEHEHPVNKISFIARDVTDNRAFGYVCGGEGQHQFFAIKTGQQAEPLVVDLKDLFQVIYNVKKKEEEKKKIEEASKAVENGSEALMILDDQTNKLKSGVDQMDLFGDMSTPPDLNSPTESKDILLVDLNS
PtdIns(4,5)P2 binding [1]: bound to PtdIns(4,5)P2-containing liposomes
localization at the platelet surface ([2]; 3 min after TRAP stimulation): clearly localized at the platelet surface
internalization ([2]; 10 min after activation): internalized
effect on platelet adhesion to fibrinogen [3]: did not significantly affect platelet adhesion to fibrinogen
inhibition of sulfatide induced activation (surface P-selectin) [4]: remained at ADP stimulated levels
inhibition of sulfatide induced activation (surface P-selectin) ([4]; listed as N-PTB^4M): no inhibition of sulfatide induced activation
effect on leukocyte adhesion and platelet-leukocyte aggregates under flow [5]: great reduction in observed leukocyte adhesion as well as platelet-leukocyte aggregates
effect on leukocyte adhesion and platelet-leukocyte aggregates under flow ([5]; listed as N-PTB^4M): unable to affect the adhesion and aggregation of leukocytes
